Test results published in patent US20240376190A1 (Chugai, published 2024).
Changes are numbered by the printed parent chain.

How the values were obtained:
[1] = biological target: T1, mouse cell surface latent TGF-beta 1 expressed on Ba/F3 cells (mouse, UniProt P04202 30-390); experiment: flow cytometry (FACS) on BaF3 cells, PE anti-human IgG secondary
T1 construct: whole, on cells; also called mouse latent TGF-beta 1
Protocol: (§1) The anti-latent TGF-beta 1 antibodies (10 microgram/mL each) were incubated with each cell line for 30 minutes at 4 degree C. and washed with FACS buffer (2% PBS, 2 mM EDTA in PBS). […] Data acquisition was performed on an FACS Verse (Becton Dickinson), followed by analysis and calculation of Mean Fluorescence Intensity (MFI), using FlowJo (trademark) software (Tree Star) and GraphPad Prism software (GraphPad).

[2] = biological target: T2, human cell surface latent TGF-beta 1 expressed on FreeStyle 293-F cells (human, UniProt P01137 30-390); experiment: flow cytometry (FACS) on FreeStyle 293-F cells, PE anti-human IgG secondary
T2 construct: whole, on cells; also called human latent TGF-beta 1
Protocol: as §1

[3] = biological target: T3, FLAG-tagged human latent TGF-beta 1 (human, UniProt P01137 34-390); experiment: SPR (BIACORE 8K), antibody captured on anti-human Fc, antigen as analyte, pH 7.4
T3 construct: Co-expressed with human furin, purified on anti-FLAG resin and by gel filtration; also called human latent TGF-beta 1 (SLC); hSLC
Protocol: (§2) A mouse anti-human Fc (GE Healthcare) was immobilized onto all flow cells of a CM5 sensor chip using amine coupling kit (GE Healthcare). Antibodies were captured onto the anti-human Fc sensor surfaces to around 20RU capture level, then recombinant latent TGF-beta 1 of human, cyno, and mouse was injected over the flow cell. All antibodies and analytes were prepared in ACES pH 7.4 containing 20 mM ACES, 150 mM NaCl, 0.05% Tween 20, 0.005% NaN₃. Sensor surface was regenerated each cycle with 3M MgCl₂.

[4] = biological target: T4, FLAG-tagged mouse latent TGF-beta 1 (mouse, UniProt P04202 34-390); experiment: as above
T4 construct: Co-expressed with human furin; also called mouse latent TGF-beta 1 (SLC); mSLC
Protocol: as §2

[5] = biological target: T3, FLAG-tagged human latent TGF-beta 1; experiment: SPR (BIACORE 8K), antibody captured on anti-human Fc, antigen as analyte, pH 5.8
[6] = biological target: T4, FLAG-tagged mouse latent TGF-beta 1; experiment: as above
[7] = biological target: T3, FLAG-tagged human latent TGF-beta 1; experiment: SPR (BIACORE), antibody captured on anti-human Fc, antigen as analyte, pH 7.4
[8] = biological target: T4, FLAG-tagged mouse latent TGF-beta 1; experiment: as above
[9] = biological target: T5, Cyno latent TGF-beta 1 (Cys at the 30th position substituted with Ser (C33S mutation)); experiment: SPR (BIACORE 8K), ratio calculated from FIGS. 5 and 6
T5 construct: The first reading lists it only inside the group m5; also called FLAG-tagged cynomolgus monkey latent TGF-beta 1; monkey latent TGF-beta 1 (SLC)
T5 sequence (latent TGF-beta 1 (LAP and mature TGF-beta 1), as listed by the source): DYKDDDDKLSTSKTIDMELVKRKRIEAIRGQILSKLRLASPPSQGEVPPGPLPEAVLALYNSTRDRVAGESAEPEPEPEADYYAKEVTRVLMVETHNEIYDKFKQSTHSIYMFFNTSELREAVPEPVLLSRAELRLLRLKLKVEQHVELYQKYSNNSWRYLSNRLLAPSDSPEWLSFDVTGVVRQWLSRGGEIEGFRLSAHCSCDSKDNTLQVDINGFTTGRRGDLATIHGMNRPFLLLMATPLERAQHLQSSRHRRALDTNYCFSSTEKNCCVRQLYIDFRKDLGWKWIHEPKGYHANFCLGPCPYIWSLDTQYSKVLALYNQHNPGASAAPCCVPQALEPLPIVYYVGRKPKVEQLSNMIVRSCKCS

[10] = biological target: T3, FLAG-tagged human latent TGF-beta 1; experiment: as above
[11] = biological target: T4, FLAG-tagged mouse latent TGF-beta 1; experiment: as above
[12] = biological target: T5, Cyno latent TGF-beta 1; experiment: SPR (BIACORE 8K), antibody captured on anti-human Fc, antigen as analyte, pH 7.4
Protocol: as §2

[13] = biological target: T5, Cyno latent TGF-beta 1; experiment: SPR (BIACORE 8K), antibody captured on anti-human Fc, antigen as analyte, pH 5.8

B1: Anti-KLH antibody IC17dK-SG181 (antibody, human IgG1, kappa, V domains shown)
VH: QVQLQQSGPQLVRPGASVKISCKASGYSFTSYWMHWVNQRPGQGLEWIGMIDPSYSETRLNQKFKDKATLTVDKSSSTAYMQLSSPTSEDSAVYYCALYGNYFDYWGQGTTLTVSS
VL: DIQMTQSSSSFSVSLGDRVTITCKASEDIYNRLAWYQQKPGNAPRLLISGATSLETGVPSRFSGSGSGKDYTLSITSLQTEDVATYYCQQYWSTPYTFGGGTKLEVKR
notes: Anti-KLH antibody with a human IgG1 Fc region, used as negative control; also called negative control antibody
binding result [1]: no binding (tested: 10 microgram/mL)
binding result [2]: no binding (tested: 10 microgram/mL)

B2: hT0947AE34-SG191 (antibody, human IgG1, V domains shown)
VH: QVQLVESGGGVVQPGRSLRLSCAASGFHFSSEAMNWIRQPPGKGLEWIGYIYTSGTTYRANWARGRFTISRDNSKNTLYLQMNSLRAEDTAVYYCARGWHIFDHHYWVMHAWGQGTLVTVSS
VL: DIQMTQSPSSLSASVGDRVTITCQASQSISTYLAWYQQKPGQPPKLLIYAASTLEYGVPSRFSGSGSGTDFTLTISSLQPEDFATYYCQSYSDGDSVIFGQGTKVEIKR
notes: Human IgG1, SG191; also called hT0497AE34-SG191
Kd [3]: 2.29 nM
Kd [4]: 3.67 nM
Kd [5]: 309 nM
Kd [6]: 346 nM

B3: hT0947AE25-SG181 (antibody, human IgG1, kappa, V domains shown)
VH: B2 VH with S31N, A60S, D103G, H105Q, A111F
VL: B2 VL with L33E, Y56S, I98G
notes: Human IgG1; Heavy chain = VH + CH, light chain = VL + CL
Kd [7]: 3.88 nM
koff [7]: 0.00152 s⁻¹
kon [7]: 391000 M⁻¹ s⁻¹
Kd [8]: 4.48 nM
koff [8]: 0.0353 s⁻¹
kon [8]: 7.89e+06 M⁻¹ s⁻¹

B4: hT0947AE26-SG181 (antibody, human IgG1, kappa, V domains shown)
VH: B2 VH with S31N, A60S, D103G, H105Q, A111F
VL: B2 VL with L33E, Y56S, I98K
notes: as for B3
Kd [7]: 3.33 nM
koff [7]: 0.0012 s⁻¹
kon [7]: 361000 M⁻¹ s⁻¹
Kd [8]: 5.34 nM
koff [8]: 0.00864 s⁻¹
kon [8]: 1.62e+06 M⁻¹ s⁻¹

B5: hT0947AE23-SG181 (antibody, human IgG1, kappa, V domains shown)
VH: B2 VH with S31R, W99T, I101L, D103G, A111S
VL: B2 VL with I98V
notes: as for B3
Kd [7]: 3.25 nM
koff [7]: 0.00108 s⁻¹
kon [7]: 333000 M⁻¹ s⁻¹
Kd [8]: 4.19 nM
koff [8]: 0.00187 s⁻¹
kon [8]: 445000 M⁻¹ s⁻¹

B6: hT0947AE27-SG191 (antibody, human IgG1, V domains shown)
VH: B2 VH with S31N, S54T, D103G, A111F
VL: B2 VL with S28R, L33V, Y56S
notes: Human IgG1, SG191; also called hT0497AE27-SG191
Kd [3]: 3.93 nM
Kd [4]: 5.43 nM
Kd [5]: 482 nM
Kd [6]: 803 nM

B7: hT0947AE20-SG191 (antibody, human IgG1)
heavy: QVQLVESGGGVVQPGRSLRLSCAASGFLFSREAMNWIRQPPGKGLEWIGYIYTSGTTYRANWARGRFTISRDNSKNTLYLQMNSLRAEDTAVYYCARGWHIFGHQYWVMHFWGQGTLVTVSSASTKGPSVFPLAPSSKSTSGGTAALGCLVKDYFPEPVTVSWNSGALTSGVHTFPAVLQSSGLYSLSSVVTVPSSSLGTQTYICNVNHKPSNTKVDKRVEPKSCDKTHTCPPCPAPELRRGPSVFLFPPKPKDTLMISRTPEVTCVVVDVSHEDPEVKFNWYVDGVEVHNAKTKPREEQYNSTYRVVSVLTVLHQDWLNGKEYKCKVSNKALPAPIEKTISKAKGQPREPQVYTLPPSREEMTKNQVSLTCLVKGFYPSDIAVEWESNGQPENNYKTTPPVLDSDGSFFLYSKLTVDKSRWQQGNVFSCSVLHEALHAHYTRKELSLSP
light: DIQMTQSPSSLSASVGDRVTITCQASQSISTYEAWYQQKPGQPPKLLIYAASTLESGVPSRFSGSGSGTDFTLTISSLQPEDFATYYCQSYSDGDSVIFGQGTKVEIKRTVAAPSVFIFPPSDEQLKSGTASVVCLLNNFYPREAKVQWKVDNALQSGNSQESVTEQDSKDSTYSLSSTLTLSKADYEKHKVYACEVTHQGLSSPVTKSFNRGEC
notes: Human IgG1, SG191; also called hT0497AE20-SG191
KD ratio pH5.8/pH7.4 [9]: 113
koff ratio pH5.8/pH7.4 [9]: 55.3
KD ratio pH5.8/pH7.4 [10]: 103
koff ratio pH5.8/pH7.4 [10]: 51.7
KD ratio pH5.8/pH7.4 [11]: 131
koff ratio pH5.8/pH7.4 [11]: 44.2
Kd [12]: 3.78 nM
koff [12]: 0.001 s⁻¹
kon [12]: 266000 M⁻¹ s⁻¹
Kd [3]: 3.84 nM
koff [3]: 0.00104 s⁻¹
kon [3]: 271000 M⁻¹ s⁻¹
Kd [4]: 5.12 nM
koff [4]: 0.00242 s⁻¹
kon [4]: 472000 M⁻¹ s⁻¹
Kd [13]: 427 nM
koff [13]: 0.0553 s⁻¹
kon [13]: 129000 M⁻¹ s⁻¹
Kd [5]: 395 nM
koff [5]: 0.0538 s⁻¹
kon [5]: 136000 M⁻¹ s⁻¹
Kd [6]: 669 nM
koff [6]: 0.107 s⁻¹
kon [6]: 160000 M⁻¹ s⁻¹

B8: hT0947AE37-SG191 (antibody, human IgG1, V domains shown)
VH: B2 VH with T53V, N61D, D103G
VL: B2 VL with Q27E, Y56S
notes: Human IgG1, SG191; also called hT0497AE37-SG191
Kd [3]: 1.32 nM
Kd [4]: 3.61 nM
Kd [5]: 222 nM
Kd [6]: 1570 nM

B9: hT0947AE20-SG181 (antibody, human IgG1, kappa)
heavy: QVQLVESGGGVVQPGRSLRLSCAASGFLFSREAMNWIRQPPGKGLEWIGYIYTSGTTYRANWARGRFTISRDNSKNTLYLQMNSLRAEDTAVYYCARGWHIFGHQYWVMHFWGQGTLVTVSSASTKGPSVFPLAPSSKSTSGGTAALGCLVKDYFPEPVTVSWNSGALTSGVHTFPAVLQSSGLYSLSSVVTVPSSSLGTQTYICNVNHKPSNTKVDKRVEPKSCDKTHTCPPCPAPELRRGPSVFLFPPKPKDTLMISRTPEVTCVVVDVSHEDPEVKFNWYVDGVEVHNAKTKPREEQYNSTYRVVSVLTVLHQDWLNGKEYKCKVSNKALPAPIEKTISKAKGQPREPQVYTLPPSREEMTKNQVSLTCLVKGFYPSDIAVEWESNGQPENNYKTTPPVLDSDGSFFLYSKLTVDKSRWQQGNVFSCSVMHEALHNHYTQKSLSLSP
light: B7 light
notes: Human IgG1
Kd [7]: 2.95 nM
koff [7]: 0.00111 s⁻¹
kon [7]: 377000 M⁻¹ s⁻¹
Kd [8]: 4.39 nM
koff [8]: 0.00294 s⁻¹
kon [8]: 670000 M⁻¹ s⁻¹

B10: hT0947AE07-SG181 (antibody, human IgG1, kappa)
heavy: not shown
light: B7 light with E33L, I98G
notes: Human IgG1; Heavy chain = VH + CH, light chain = VL + CL; also called non-pH dependent anti-human latent TGF-beta 1 antibody
Kd [7]: 1.02 nM
Kd [8]: 1.04 nM

B11: hT0947AE24-SG181 (antibody, human IgG1, kappa, V domains shown)
VH: B2 VH with D103G, A111F
VL: B2 VL with Y56W, I98G
notes: as for B3
Kd [7]: 2.55 nM
koff [7]: 0.001 s⁻¹
kon [7]: 393000 M⁻¹ s⁻¹
Kd [8]: 7.03 nM
koff [8]: 0.00441 s⁻¹
kon [8]: 627000 M⁻¹ s⁻¹

B12: hT0947AE22-SG181 (antibody, human IgG1, kappa, V domains shown)
VH: B2 VH with S31R, D103G, A111F
VL: B2 VL with Y56S
notes: as for B3
Kd [7]: 3.6 nM
koff [7]: 0.00124 s⁻¹
kon [7]: 344000 M⁻¹ s⁻¹
Kd [8]: 5.76 nM
koff [8]: 0.00376 s⁻¹
kon [8]: 653000 M⁻¹ s⁻¹

B13: T0947H0053H0156-SG181/T0947L001L0049-SK1 (antibody, human IgG1, kappa, V domains shown)
VH: B2 VH with H28T, W99T, F102Y, H105Y, M109H, A111L
VL: B2 VL with Y56S, I98G
notes: Human IgG1; also called the pH dependent antibody; parent pH-dependent anti human latent TGF-beta 1 antibody
Kd [8]: 16.6 nM
